# According to paper PMC5422877:
# Legend:
# [1] = target: T1, MqsA-CHis (Pseudomonas putida KT2440) (UniProt Q88F94); test: EMSA; conditions: 10 mM HEPES pH 7.3, 20 mM KCl, 1 mM MgCl2, 5% glycerol, NP-40, poly dI-dC, 0.05 pmol biotin probe in 20 ul, 25 C, 1 h
# T1 sequence: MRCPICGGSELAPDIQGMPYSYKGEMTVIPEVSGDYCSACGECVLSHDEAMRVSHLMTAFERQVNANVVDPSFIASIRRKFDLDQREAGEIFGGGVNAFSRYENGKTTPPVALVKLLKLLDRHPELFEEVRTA
# [2] = target: MqsA-CHis;MqsR (Pseudomonas putida KT2440;Pseudomonas putida KT2440) (UniProt Q88F94+Q88F93); test: EMSA; conditions: 10 mM HEPES pH 7.3, 20 mM KCl, 1 mM MgCl2, 5% glycerol, NP-40, poly dI-dC, 0.05 pmol biotin probe in 20 ul, 25 C, 1 h
sequence,measurement,setting,value
CTATTAGCCAAATTTAACCTGGAAGGTTAATTTCTCATGGAAAAGAGAATGCCTCATTGCCCGCTGGAGCGGGTAAAAGCCCTGGCTGCGGCAAGGCGAATCCGCCCTACGGGTGCTGCATTGAAAGGCG (double strand) [PmqsRA],binding,[1],binds
same,binding,[2],no binding
